Like-named read-outs stand apart in the source and are kept apart here. Square brackets hold non-standard residues; d marks the D form. Peptide text beside a SMILES is read from it. * marks the point of attachment. HYNIC = NNc1ccc(C(=O)*)cn1; AEEA = NCCOCCOCC(=O)O
Tests used:
[1] = Partition coefficient (Log P), n-octanol / phosphate buffer; assay type: physicochemical; conditions: shake-flask, equal volume mixture of n-octanol and phosphate buffer (25 mM, pH = 7.4); mean ± SD
Method: [^99mTc]-(HYNIC-AF7P)(tricine)(TPPTS) was prepared in two steps. First, HYNIC-AF7P was synthesized (Fig 1) and reacted with Na^99mTcO4 in the presence of excess tricine and SnCl2 to form the intermediate [^99mTc]-(HYNIC-AF7P)(tricine)2, which was then allowed to react with TPPTS to form the ternary ligand complex [^99mTc](HYNIC-AF7P)(tricine)(TPPTS). […] The HPLC retention time was 9.2 min for [^99mTc](HYNIC-AF7P)(tricine)(TPPTS) and the specific activity of final product was 1200 mCi/μmol. The partition coefficient of [^99mTc]-(HYNIC-AF7P)(tricine)(TPPTS) was determined in an equal volume mixture of noctanoland phosphate buffer (25 mM, pH = 7.4). Log P value of [^99mTc]-(HYNIC-AF7P)(tricine)(TPPTS)was -2.39±0.06.

[2] = system: A549 tumor (little MT1-MMP); test: SPECT imaging of A549 tumor-bearing mice; assay type: in vivo; conditions: i.v., A549 tumor bearing model, mean ± SD
Method: (§1) All animal experiments were approved by Jilin University Health Science Center Animal Care and Use Committee. Human breast carcinoma cell line MDA-MB-231 with high MT1-MMP expression and human lung adenocarcinomaepithelial cell line A549 with low MT1-MMP expression were cultured in DMEM medium containing 10% (v/v) fetal bovine serum (Invitrogen) supplemented with penicillin (100 μg/mL) and streptomycin (100 μg/mL) at 37°C with 5% CO2. MDA-MB-231 and A549 tumor models were established by subcutaneous injection of 5×10^6 cells into the upper right front flank of female athymic nude mice (Department of Experimental Animal, Peking University Health Science Center). Tumor growth was monitored by caliper measurements three times a week after the tumors are palpable. The mice were used for SPET/CT imaging when the tumor volume reached about 200 mm3 (about 14 days after tumor inoculations). The tumor volume was determined as the formula: V = a × (b^2)/2, where a and b are the length and width of each tumor in mm respectively. During the injection and image acquisition process, the mice were anesthetized with 2.5% isoflurane in oxygen delivered at a flow rate of 1.5 L/min.
The imaging study was performed using the female BALB/c nude mice bearing the MDA-MB-231 tumors and A549 tumors. Each tumor-bearing mouse was administered intravenously with [^99mTc]-(HYNIC-AF7P)(tricine)(TPPTS) (22.2 MBq/mice) in 0.1 mL saline. For blocking test, 200 μg free AF7P was intravenously injected into MDA-MB-231 tumor bearing mice 30 min before [^99mTc]-(HYNIC-AF7P)(tricine)(TPPTS) was injected. Animals were placed prone on a two-head γ-camera (SIEMENS, E. CAM) equipped with a parallel-hole, low-energy, and high-resolution collimator. Posterior images were acquired at 0.5, 2 and 4 hours post injection (p.i.). The acquisition count limits were set at 700k. After completion of imaging, animals were sacrificed by cervical dislocation.

[3] = In vivo biodistribution study (ex vivo organ counting); design: species or system mice; conditions: female, mouse, iv, total radioactivity, mean ± SD, n = 3; for tissue uptake at 0.5 h: 0.5h after i.v.; for tissue uptake at 1 h: 1h after i.v.; for tissue uptake at 2 h: 2h after i.v.; for tissue uptake at 4 h: 4h after i.v.
Method: as §1
Animals were divided into 4 groups (n = 3) for 4 time points with approximately equal distribution of tumor sizes on the day before the study. At 0.5, 1, 2, and 4 h after intravenous administration of [^99mTc]-(HYNIC-AF7P)(tricine)(TPPTS), MDA-MB-231 tumor bearing mice were euthanized. […] The organ uptake was calculated as a percentage of the injected dose per gram of wet tissue (%ID/g).

[4] = BALB/c nude, blood, read-out: Blood uptake
[5] = BALB/c nude, bone, read-out: Bone uptake
[6] = BALB/c nude, heart, read-out: Heart uptake
[7] = BALB/c nude, kidney, read-out: Kidney uptake
[8] = BALB/c nude, liver, read-out: Liver uptake
[9] = BALB/c nude, lung, read-out: Lung uptake
[10] = BALB/c nude, muscle, read-out: Muscle uptake
[11] = BALB/c nude, spleen, read-out: Spleen uptake
[12] = athymic nude, intestine, read-out: Intestine uptake
[13] = athymic nude, pancreas, read-out: Pancreas uptake

For CC(C)C[C@H](NC(=O)[C@H](Cc1ccccc1)NC(=O)[C@@H](NC(=O)[C@H](CCCCN)NC(=O)[C@@H](NC(=O)[C@H](CC(N)=O)NC(=O)[C@H](Cc1c[nH]cn1)NC(=O)[C@H](CC(C)C)NC(=O)[C@H](Cc1c[nH]cn1)NC(=O)[C@H](CCCCN)NC(=O)[C@H](Cc1c[nH]c2ccccc12)NC(=O)[C@H](Cc1c[nH]cn1)NC(=O)c1ccc(NN)nc1)[C@@H](C)O)[C@@H](C)O)C(=O)NCCOCCOCC(=O)O [[^99mTc]-(HYNIC-AF7P)(tricine)(TPPTS), metal not drawn] ({HYNIC}-HWKHLHNTKTFL[AEEA]-OH), the “Log P value (partition coefficient)” value [1] was -2.39±0.06, the “tumor uptake (SPECT ROI), A549 tumor” value ([2]; 0.5 h p.i.) was 1.35±0.11 %ID/g and the “tumor uptake (SPECT ROI), A549 tumor” value ([2]; 4 h p.i.) was 1.01± 0.00 %ID/g. The “tumor uptake (SPECT ROI), A549 tumor” value ([2]; time point not printed (between 0.5 h and 4 h)) was 1.03±0.05 %ID/g, the tissue uptake at 0.5 h [3, 4] was 0.36 ± 0.02 %ID/g and the tissue uptake at 1 h [3, 4] was 0.28 ± 0.01 %ID/g. For the same compound, the tissue uptake at 2 h [3, 4] was 0.2 ± 0.01 %ID/g, the tissue uptake at 4 h [3, 4] was 0.19 ± 0.01 %ID/g and the tissue uptake at 0.5 h [3, 5] was 0.8 ± 0.04 %ID/g. It also gave a tissue uptake at 1 h [3, 5] of 0.58 ± 0.03 %ID/g, a tissue uptake at 2 h [3, 5] of 0.44 ± 0.02 %ID/g and a tissue uptake at 4 h [3, 5] of 0.4 ± 0.02 %ID/g. The tissue uptake at 0.5 h [3, 6] was 2.28 ± 0.16 %ID/g, the tissue uptake at 1 h [3, 6] was 1.67 ± 0.2 %ID/g and the tissue uptake at 2 h [3, 6] was 0.98 ± 0.07 %ID/g. It also gave a tissue uptake at 4 h [3, 6] of 0.64 ± 0.04 %ID/g, a tissue uptake at 0.5 h [3, 7] of 8.86 ± 0.48 %ID/g and a tissue uptake at 1 h [3, 7] of 7.42 ± 0.43 %ID/g. The tissue uptake at 2 h [3, 7] was 4.84 ± 0.19 %ID/g, the tissue uptake at 4 h [3, 7] was 4.33 ± 0.2 %ID/g and the tissue uptake at 0.5 h [3, 8] was 5.22 ± 0.17 %ID/g. It also gave a tissue uptake at 1 h [3, 8] of 3.9 ± 0.32 %ID/g, a tissue uptake at 2 h [3, 8] of 2.89 ± 0.11 %ID/g and a tissue uptake at 0.5 h [3, 9] of 2.11 ± 0.06 %ID/g. It also gave a tissue uptake at 1 h [3, 9] of 1.45 ± 0.18 %ID/g, a tissue uptake at 2 h [3, 9] of 1.01 ± 0.03 %ID/g and a tissue uptake at 4 h [3, 9] of 0.7 ± 0.09 %ID/g. For the same compound, the tissue uptake at 0.5 h [3, 10] was 0.9 ± 0.06 %ID/g, the tissue uptake at 1 h [3, 10] was 0.68 ± 0.09 %ID/g and the tissue uptake at 2 h [3, 10] was 0.53 ± 0.04 %ID/g. The tissue uptake at 4 h [3, 10] was 0.52 ± 0.04 %ID/g, the tissue uptake at 0.5 h [3, 11] was 0.9 ± 0.07 %ID/g and the tissue uptake at 1 h [3, 11] was 0.71 ± 0.06 %ID/g. For the same compound, the tissue uptake at 2 h [3, 11] was 0.56 ± 0.06 %ID/g, the tissue uptake at 4 h [3, 11] was 0.41 ± 0.02 %ID/g and the tissue uptake at 0.5 h [3, 12] was 1.91 ± 0.05 %ID/g. It also gave a tissue uptake at 1 h [3, 12] of 1.61 ± 0.07 %ID/g, a tissue uptake at 2 h [3, 12] of 1.52 ± 0.12 %ID/g and a tissue uptake at 4 h [3, 12] of 1.14 ± 0.08 %ID/g. For the same compound, the tissue uptake at 4 h ([3]; athymic nude, liver, read-out: Liver uptake) was 2.55 ± 0.1 %ID/g, the tissue uptake at 0.5 h [3, 13] was 0.77 ± 0.02 %ID/g and the tissue uptake at 1 h [3, 13] was 0.52 ± 0.03 %ID/g. It also gave a tissue uptake at 2 h [3, 13] of 0.35 ± 0.04 %ID/g.

Reference: publication PMC4593522, “Development of a Radiolabeled Peptide-Based Probe Targeting MT1-MMP for Breast Cancer Detection” (PLoS ONE, 2015)
